# B1: H8 aptamer (ssDNA)
# DNA: ATACCAGCTTATTCAATTCCCCCGGCTTTGGTTTAGAGGTAGTTGCTCATTACTTGTACGCTCCGGATGAGATAGTAAGTGCAATCT
# Biological target: human serum albumin (HSA) (Homo sapiens, UniProt P02768 25-609)
# Experiment: graphene oxide fluorescence recovery (competition with GO quencher); PBS; PBS or PBS with 2% (w/v) boric acid, ambient temperature, 5 mg/L GO stock, 30 min with HSA in the dark; pH not given
# Settings: protein: commercial; label: 5'-Cy5
# Chain of human serum albumin (HSA) (P02768 25-609): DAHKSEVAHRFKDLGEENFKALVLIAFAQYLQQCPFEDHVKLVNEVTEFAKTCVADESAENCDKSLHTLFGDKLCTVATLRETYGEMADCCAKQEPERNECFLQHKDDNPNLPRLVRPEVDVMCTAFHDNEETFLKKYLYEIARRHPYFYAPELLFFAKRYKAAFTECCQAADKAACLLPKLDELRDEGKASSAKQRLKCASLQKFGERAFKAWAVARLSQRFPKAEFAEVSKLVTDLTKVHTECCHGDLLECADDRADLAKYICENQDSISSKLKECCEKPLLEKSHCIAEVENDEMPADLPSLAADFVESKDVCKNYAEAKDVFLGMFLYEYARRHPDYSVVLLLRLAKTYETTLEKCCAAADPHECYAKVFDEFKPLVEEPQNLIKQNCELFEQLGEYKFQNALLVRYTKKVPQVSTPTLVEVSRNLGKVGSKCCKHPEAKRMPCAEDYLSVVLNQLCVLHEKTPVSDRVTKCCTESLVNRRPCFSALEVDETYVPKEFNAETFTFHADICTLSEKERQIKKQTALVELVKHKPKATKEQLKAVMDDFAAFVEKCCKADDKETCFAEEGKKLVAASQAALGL
binder,measurement,value
B1,binding result,binds

# — paper PMC9687920, “Effects of Boric Acid and Storage Temperature on the Analysis of Microalbumin Using Aptasensor-Based Fluorescent Detection”
